Publication PMC8126724, “Infant-Associated Bifidobacterial β-Galactosidases and Their Ability to Synthesize Galacto-Oligosaccharides” (Frontiers in Microbiology, 2021)

Assays:
[1] = biological target: BgaA β-galactosidase (Bbr_0010) (B. breve UCC2003); experiment: SEC-MALS; Superose 6 10/300 G/L, 50 mM Tris-HCl, 150 mM NaCl, pH 7.5, 0.5 mL/min; dual-angle light scattering (RALS/LALS) and refractometer (OmniSec REVEAL); protein concentrations in Supplementary Table 1; native mass compared with the calculated monomer mass (with His-tag)
[2] = biological target: BgaB β-galactosidase (Bbr_0529) (B. breve UCC2003); experiment: as above
[3] = biological target: BgaC β-galactosidase (B216_08266) (B. bifidum LMG 13195); experiment: as above
[4] = biological target: BgaD β-galactosidase (B8809_0415) (B. longum subsp. longum NCIMB 8809); experiment: as above
[5] = biological target: BgaE β-galactosidase (B8809_0611) (B. longum subsp. longum NCIMB 8809); experiment: as above
[6] = test system: O=[N+]([O-])c1ccccc1O[C@@H]1O[C@H](CO)[C@H](O)[C@H](O)[C@H]1O; experiment: o-nitrophenol release, A420; type: biochemical, Bifidobacterium longum subsp. longum; conditions: 0.1 M sodium acetate pH 6.5, 40 °C, unit mM, not in table
Description: o-nitrophenol release, A420 on BgaF

[7] = biological target: BgaG β-galactosidase (Blon_2016) (B. longum subsp. infantis ATCC 15697); experiment: SEC-MALS; Superose 6 10/300 G/L, 50 mM Tris-HCl, 150 mM NaCl, pH 7.5, 0.5 mL/min; dual-angle light scattering (RALS/LALS) and refractometer (OmniSec REVEAL); protein concentrations in Supplementary Table 1; native mass compared with the calculated monomer mass (with His-tag)

Substance: BgaA β-galactosidase (Bbr_0010) (enzyme)
- stoichiometry N [1]: 2

Substance: BgaB β-galactosidase (Bbr_0529) (enzyme)
- stoichiometry N [2]: 3

Substance: BgaC β-galactosidase (B216_08266) (enzyme)
- stoichiometry N [3]: 3

Substance: BgaD β-galactosidase (B8809_0415) (enzyme)
- stoichiometry N [4]: 3

Substance: BgaE β-galactosidase (B8809_0611) (enzyme)
- stoichiometry N [5]: 4

Substance: BgaF (Bifidobacterium longum subsp. longum)
- Km [6]: 5.178 mM

Substance: BgaG β-galactosidase (Blon_2016) (enzyme)
- stoichiometry N [7]: 3
